Measured values from the nanobody polyreactivity screen of Harvey et al. (2022).

Experiment: yeast display, Sf9 membrane polyspecificity reagent, FACS + sequencing; frameworks hold sequencing errors
Summary of the method: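 Polyreactivity labels are assigned by the sorting gate from which each nanobody was recovered. The gates were low and high (top ~1%), set on anti-HA fluorescence for expression and streptavidin fluorescence for reagent binding. Before sorting, galactose-induced (36–48 hours) yeast display cells were stained for 1 hour at 4 °C with 10% biotinylated, detergent-solubilized Sf9 membrane reagent.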

Sequence	polyreactivity (PSR sort gate)
QVQLVESGGGLVQAGGSLRLSCAASGRIFWANAMGWYRQAPGKERELVAAISKSGDSTYYADSVKGRFTISRDTAKNTVYLEMSWLKPEDTAVYSCAADEYASRFSFKYDYWGQGTQVTVSS	high polyreactivity
QVQLVESGGGLVQAGGSLRLSCAASGRIFWDNAMGWYRQAPGKERELVAAISDSVVITYYADSVKGRFTISRDNAKNTVYLQMNSLKPEDTAVYYCAADKRGTVYLSSFWMDYWGQGTQVTVSW	low polyreactivity
QVQLVESGGGLVQAGGSLRLSCAASGRIFWDNAMGWYRQAPGKERELVADITWRSDSTYYADSVKGRFTISRDNAKNTVYLQMNSLKPEATAVYYCAKPINIYPYDYWGQGTQVTVSS	low polyreactivity
QVQLVESGGGLVQAGGSLRLSCAASGRIFWDYALGWYRQAPGKERELVAVITFSGDSTYYADSVKGRFTISRDNAKNTVYVQMNSLKPEDTAVYYCAAARAIRQFWYVATFEYWGQGTQVTVSS	low polyreactivity
QVQLVESGGGLVQAGGSLRLSCAASGRIFWFNSMGWYRQAPGKERELVAAIDSVGSTYYADSVKGRFTISRDNAKNTVYLQMNSLKPEDTAVYYCAKSTRPVSGVPDGPLYEYWGQGTQVTVSS	low polyreactivity
QVQLVESGGGLVQAGGSLRLSCAASGRIFWGNGMGWYRQAPGKEREFVAAISKSGGSTYYADSVKGRFTISRDNAKNTVYLQMNSLKPEDTAVYYCAARAPYSYSGYGYWGQGTQVTVSS	high polyreactivity
QVQLVESGGGLVQAGGSLRLSCAASGRIFWGNGMGWYRQAPGKEREFVAAISKSGGSTYYADSVKGRFTISRDNAKNTVYLQMNSLKPEDTAVYYCNARTSRYRRGGDSWGQGTQVTVSS	high polyreactivity
QVQLVESGGGLVQAGGSLRLSCAASGRIFWGYAMGWYRQAPGKERELVARITSGGDTYYADSVKGRFTISRDNAKNTVYLQMNSLKPEDTAVYYCAISTAVKPYAYRESGFIYDYWGQGSQVTVSS	low polyreactivity
QVQLVESGGGLVQAGGSLRLSCAASGRIFWGYVMGWYRQAPGKERELVAAISSGGDTHYADSVKGRFTISRDNAKKTVYLQMNSLKPEDTAVYYCAARPNFTPYEYGYWGQGTQVTVSS	low polyreactivity
QVQLVESGGGLVQAGGSLRLSCAASGRIFWPNAMGWYRQAPGKERELVAAISYSGGSTYYADSVKGRFTISRDNAKNTVYLQMNSLKPEDTAVYYCAATRSVRISGDGYLGYDYWGQGTQVTVSS	high polyreactivity
QVQLVESGGGLVQAGGSLRLSCAASGRIFWQNAKGWYRQAPGKERELVAAISSRGGTTYYADSVKGRFTISRDNAKNTVYLQMNRLKPEDTAVYYCNAALLLRYRGFFTVAAYDYWGQGTQVTVSS	low polyreactivity
QVQLVESGGGLVQAGGSLRLSCAASGRIFWSYAMGWYRQAPGKERELVAAITWRTGRTYYADSVKGRFTISRDNAKNTVYLQMNSLKPEDTAVYYCAAEGYLWGQSYNGLNYDSWGQGTQVTVSS	low polyreactivity
QVQLVESGGGLVQAGGSLRLSCAASGRIFWTNAMGWYRQAPGKERELVAAISYRGGRTYYADSVKGRFTISRDNAKNTVYLQMNSLKPEDTAVYYCAAFTAQGPKYDYWGQGTQVTVSS	high polyreactivity
QVQLVESGGGLVQAGGSLRLSCAASGRIFWTNAMGWYRQEPGKERELVAAISYNGASTFYADSVKGRFTISLDNAKNTVNLQMNSLKPEDTAVYSCNAYSSRYRYNYWGQGTQVTVSS	high polyreactivity
QVQLVESGGGLVQAGGSLRLSCAASGRIFWTYAMGWYRQAPGKERELVASITWSGGTTYYADSVKGRFTISRDNAKNTVYLQMNSLKTEDTAVYYCNTDVLAPYDSGYWGQGTQVTVSS	low polyreactivity
QVQLVESGGGLVQAGGSLRLSCAASGRIFWVYAMGWYRQAPGKERELVAAISLSGGLTYYADSVKGRFTITRDNAKNTVYLQMNSLKPEDTAVYYCNAVYPKRGGGRIVDYWGEGTQVTVSS	high polyreactivity
QVQLVESGGGLVQAGGSLRLSCAASGRIFWYYAMGWSRQAPGKERELVATISYGGGNTYYADSVKGRFTISRDNAKNTVYLQMNSLKPEDTAVYYCARVPYAYLPYKPFQQYSYDYWGQGTQVTVSS	high polyreactivity
